Source: patent US11459578B2, “Carbon fixation systems in plants and algae” (NMC, INC., priority 2014, dated 2022)

B1: hCAVA: human α-carbonic anhydrase isoenzyme VA (protein, UniProt P35218 39-305, looked up)
Carbonic anhydrase 5A, …: CAWQTSNNTLHPLWTVPVSVPGGTRQSPINIQWRDSVYDPQLKPLRVSYEAASCLYIWNTGYLFQVEFDDATEASGISGGPLENHYRLKQFHFHWGAVNEGGSEHTVDGHAYPAELHLVHWNSVKYQNYKEAVVGENGLAVIGVFLKLGAHHQTLQRLVDILPEIKHKDARAAMRPFDPSTLLPTCWDYWTYAGSLTTPPLTESVTWIIQKEPVEVAPSQLSAFRTLLFSALGEEEKMMVNNYRPLQPLMNRKVWASFQATNEGTRS
B2: hCAXII: human α-carbonic anhydrase isoenzyme XII (protein, UniProt O43570 25-354, looked up)
Carbonic anhydrase 12: APVNGSKWTYFGPDGENSWSKKYPSCGGLLQSPIDLHSDILQYDASLTPLEFQGYNLSANKQFLLTNNGHSVKLNLPSDMHIQGLQSRYSATQLHLHWGNPNDPHGSEHTVSGQHFAAELHIVHYNSDLYPDASTASNKSEGLAVLAVLIEMGSFNPSYDKIFSHLQHVKYKGQEAFVPGFNIEELLPERTAEYYRYRGSLTTPPCNPTVLWTVFRNPVQISQEQLLALETALYCTHMDDPSPREMINNFRQVQKFDERLVYTSFSQVQVCTAAGLSLGIILSLALAGILGICIVVVVSIWLFRRKSIKKGDNKGVIYKPATKMETEAHA
B3: hCAXV: α-carbonic anhydrase isoenzyme XV (protein, UniProt Q99N23 19-324, looked up)
Carbonic anhydrase 15: VDSSGTWCYDSQDPKCGPAHWKELAPACGGPTQSPINIDLRLVQRDYTLKPFIFQGYDSAPQDPWVLENDGHTVLLRVNSCQQNCPAIRGAGLPSPEYRLLQLHFHWGSPGHQGSEHSLDEKHGSMEMHMVHMNTKYQSMEDARSQPDGFAILAVLLVEEDRDNTNFSAIVSGLKNLSSPGVAVNLTSTFALASLLPSALRLLRYYRYSGSLTTPGCEPAVLWTVFENTVPIGHAQVVQFQAVLQTGPPGLHPRPLTSNFRPQQPLGGRRISASPEASVRSSVSTLPCLHLALVGLGVGLRLWQGP
B4: hCAVII: human α-carbonic anhydrase isoenzyme VII (protein, UniProt P43166 1-264, looked up)
Carbonic anhydrase 7: MTGHHGWGYGQDDGPSHWHKLYPIAQGDRQSPINIISSQAVYSPSLQPLELSYEACMSLSITNNGHSVQVDFNDSDDRTVVTGGPLEGPYRLKQFHFHWGKKHDVGSEHTVDGKSFPSELHLVHWNAKKYSTFGEAASAPDGLAVVGVFLETGDEHPSMNRLTDALYMVRFKGTKAQFSCFNPKCLLPASRHYWTYPGSLTTPPLSESVTWIVLREPICISERQMGKFRSLLFTSEDDERIHMVNNFRPPQPLKGRVVKASFRA
B5: hCAIV: human α-carbonic anhydrase isoenzyme IV (protein, UniProt P22748 19-284, looked up)
Carbonic anhydrase 4: AESHWCYEVQAESSNYPCLVPVKWGGNCQKDRQSPINIVTTKAKVDKKLGRFFFSGYDKKQTWTVQNNGHSVMMLLENKASISGGGLPAPYQAKQLHLHWSDLPYKGSEHSLDGEHFAMEMHIVHEKEKGTSRNVKEAQDPEDEIAVLAFLVEAGTQVNEGFQPLVEALSNIPKPEMSTTMAESSLLDLLPKEEKLRHYFRYLGSLTTPTCDEKVVWTVFREPIQLHREQILAFSQKLYYDKEQTVSMKDNVRPLQQLGQRTVIKS
B6: hCAVB: human α-carbonic anhydrase isoenzyme VB (protein, UniProt Q9Y2D0 34-317, looked up)
Carbonic anhydrase 5B, …: CSLYTCTYKTRNRALHPLWESVDLVPGGDRQSPINIRWRDSVYDPGLKPLTISYDPATCLHVWNNGYSFLVEFEDSTDKSVIKGGPLEHNYRLKQFHFHWGAIDAWGSEHTVDSKCFPAELHLVHWNAVRFENFEDAALEENGLAVIGVFLKLGKHHKELQKLVDTLPSIKHKDALVEFGSFDPSCLMPTCPDYWTYSGSLTTPPLSESVTWIIKKQPVEVDHDQLEQFRTLLFTSEGEKEKRMVDNFRPLQPLMNRTVRSSFRHDYVLNVQAKPKPATSQATP
B7: HLA3: Chlamydomonas plasma membrane-localized and ATP-dependent bicarbonate transporter, expressed in transgenic plants (protein, listed as Chlamydomonas reinhardtii)
chain: MLPGLGVILLVLPMQYYFGYKIVQIKLQNAKHVALRSAIMQEVLPAIKLVKYYAWEQFFENQISKVRREEIRLNFWNCVMKVINVACVFCVPPMTAFVIFTTYEFQRARLVSSVAFTTLSLFNILRFPLVVLPKALRAVSEANASLQRLEAYLLEEVPSGTAAVKTPKNAPPGAVIENGVFHHPSNPNWHLHVPKFEVKPGQVVAVVGRIAAGKSSLVQAILGNMVKEHGSFNVGGRISYVPQNPWLQNLSLRDNVLFGEQFDENKYTDVIESCALTLDLQILSNGDQSKAGIRGVNFSGGQRQRVNLARCAYADADLVLLDNALSAVDHHTAHHIFDKCIKGLFSDKAVVLVTHQIEFMPRCDNVAIMDEGRCLYFGKWNEEAQHLLGKLLPITHLLHAAGSQEAPPAPKKKAEDKAGPQKSQSLQLTLAPTSIGKPTEKPKDVQKLTAYQAALIYTWYGNLFLVGVCFFFFLAAQCSRQISDFWVRWWVNDEYKKFPVKGEQDSAATTFYCLIYLLLVGLFYIFMIFRGATFLWWVLKSSETIRRKALHNVLNAPMGFFLVTPVGDLLLNFTKDQDIMDENLPDAVHFMGIYGLILLATTITVSVTINFFAAFTGALIIMTLIMLSIYLPAATALKKARAVSGGMLVGLVAEVLEGLGVVQAFNKQEYFIEEAARRTNITNSAVFNAEALNLWLAFWCDFIGACLVGVVSAFAVGMAKDLGGATVGLAFSNIIQMLVFYTWVVRFISESISLFNSVEGMAYLADYVPHDGVFYDQRQKDGVAKQIVLPDGNIVPAASKVQVVVDDAALARWPATGNIRFEDVWMQYRLDAPWALKGVTFKINDGEKVGAVGRTGSGKSTTLLALYRMFELGKGRILVDGVDIATLSLKRLRTGLSIIPQEPVMFTGTVRSNLDPFGEFKDDAILWEVLKKVGLEDQAQHAGGLDGQVDGTGGKAWSLGQMQLVCLARAALRAVPILCLDEATAAMDPHTEAIVQQTIKKVFDDRTTITIAHRLDTIIESDKIIVMEQGSLMEYESPSKLLANRDSMFSKLVDKTGPAAAAALRKMAEDFWSTRSAQGRNQ
B8: hCAVI: human α-carbonic anhydrase isoenzyme VI (protein, UniProt P23280 18-308, looked up)
Carbonic anhydrase 6: QHVSDWTYSEGALDEAHWPQHYPACGGQRQSPINLQRTKVRYNPSLKGLNMTGYETQAGEFPMVNNGHTVQISLPSTMRMTVADGTVYIAQQMHFHWGGASSEISGSEHTVDGIRHVIEIHIVHYNSKYKSYDIAQDAPDGLAVLAAFVEVKNYPENTYYSNFISHLANIKYPGQRTTLTGLDVQDMLPRNLQHYYTYHGSLTTPPCTENVHWFVLADFVKLSRTQVWKLENSLLDHRNKTIHNDYRRTQPLNHRVVESNFPNQEYTLGSEFQFYLHKIEEILDYLRRALN
B9: hCAXIV: human α-carbonic anhydrase isoenzyme XIV (protein, UniProt Q9ULX7 16-337, looked up)
Carbonic anhydrase 14: ADGGQHWTYEGPHGQDHWPASYPECGNNAQSPIDIQTDSVTFDPDLPALQPHGYDQPGTEPLDLHNNGHTVQLSLPSTLYLGGLPRKYVAAQLHLHWGQKGSPGGSEHQINSEATFAELHIVHYDSDSYDSLSEAAERPQGLAVLGILIEVGETKNIAYEHILSHLHEVRHKDQKTSVPPFNLRELLPKQLGQYFRYNGSLTTPPCYQSVLWTVFYRRSQISMEQLEKLQGTLFSTEEEPSKLLVQNYRALQPLNQRMVFASFIQAGSSYTTGEMLSLGVGILVGCLCLLLAVYFIARKIRKKRLENRKSVVFTSAQATTEA
B10: hCAIII: human α-carbonic anhydrase isoenzyme III (protein, UniProt P07451 2-260, looked up)
Carbonic anhydrase 3: AKEWGYASHNGPDHWHELFPNAKGENQSPVELHTKDIRHDPSLQPWSVSYDGGSAKTILNNGKTCRVVFDDTYDRSMLRGGPLPGPYRLRQFHLHWGSSDDHGSEHTVDGVKYAAELHLVHWNPKYNTFKEALKQRDGIAVIGIFLKIGHENGEFQIFLDALDKIKTKGKEAPFTKFDPSCLFPACRDYWTYQGSFTTPPCEECIVWLLLKEPMTVSSDQMAKLRSLLSSAENEPPVPLVSNWRPPQPINNRVVRASFK

What was measured:
[1] = cited from earlier work
α-CAs found in mammals = conditions: inhibitor not named; cited from earlier work
Arabidopsis = test: Growth phenotypes of transgenic Arabidopsis; type: in vivo
Excerpt: (§1) Previously, reconstitution of a functional inorganic CCM in C3 plants to suppress photorespiration and enhance photosynthesis was proposed. In WO 2012/125737, it was hypothesized that expression of a minimum of three algal CCM proteins would be sufficient to elevate internal plastid CO2 concentrations high enough to suppress photorespiration. These three algal CCM genes included the Chlamydomonas plasma membrane-localized and ATP-dependent bicarbonate transporter, HLA3; the chloroplast envelope localized bicarbonate anion transporter, LCIA; and a chloroplast stromal-localized carbonic anhydrase (HCA-II) to accelerate conversion of bicarbonate into CO2. […] To test this hypothesis, we generated multiple independent transgenic Arabidopsis and Camelina plants expressing each CCM gene as a single gene construct, as well as a stacked 3-gene construct. The expression of each gene was controlled by the light-regulated Cab1 gene promoter.
Finally, we also grew transgenics on ammonium with sucrose which would presumably provide additional ATP via respiration. We hypothesized that growth on nitrate or ammonium with sucrose would provide additional ATP that could potentially drive HLA3 activity.

Camelina = test: Growth phenotypes and seed recovery of transgenic Camelina; type: in vivo
Excerpt: as §1

Molecule	Km [1]	Ki (α-CAs found in mammals)	other results
hCAXIII: human α-carbonic anhydrase isoenzyme XIII	13.8 mM	16 nM	
hCAI: human α-carbonic anhydrase isoenzyme I	4 mM	250 nM	
B1	10 mM	63 nM	
B2	12 mM	5.7 nM	
B3	14.2 mM	72 nM	
B4	11.4 mM	2.5 nM	
B5	21.5 mM	74 nM	
B6	9.7 mM	54 nM	
B7			growth phenotype relative to WT (Arabidopsis): reduced growth phenotypes; growth in the presence of ammonium (Arabidopsis; ammonium): none of the Arabidopsis HLA3 transgenics (4 independent lines) grew; growth on ammonium with sucrose (Arabidopsis; ammonium plus sucrose): rescued; growth on nitrate (Arabidopsis; nitrate): survived; growth phenotype / viability relative to WT (Camelina): no viable seeds were recovered
B8	6.9 mM	11 nM	
B9	7.9 mM	41 nM	
B10	33.3 mM	200000 nM	
